Test results from patent US10005846 (LIFEARC, dated 2018).

T1: human transglutaminase type 2 (TG2) (human, UniProt P21980 1-687)
T1 sequence: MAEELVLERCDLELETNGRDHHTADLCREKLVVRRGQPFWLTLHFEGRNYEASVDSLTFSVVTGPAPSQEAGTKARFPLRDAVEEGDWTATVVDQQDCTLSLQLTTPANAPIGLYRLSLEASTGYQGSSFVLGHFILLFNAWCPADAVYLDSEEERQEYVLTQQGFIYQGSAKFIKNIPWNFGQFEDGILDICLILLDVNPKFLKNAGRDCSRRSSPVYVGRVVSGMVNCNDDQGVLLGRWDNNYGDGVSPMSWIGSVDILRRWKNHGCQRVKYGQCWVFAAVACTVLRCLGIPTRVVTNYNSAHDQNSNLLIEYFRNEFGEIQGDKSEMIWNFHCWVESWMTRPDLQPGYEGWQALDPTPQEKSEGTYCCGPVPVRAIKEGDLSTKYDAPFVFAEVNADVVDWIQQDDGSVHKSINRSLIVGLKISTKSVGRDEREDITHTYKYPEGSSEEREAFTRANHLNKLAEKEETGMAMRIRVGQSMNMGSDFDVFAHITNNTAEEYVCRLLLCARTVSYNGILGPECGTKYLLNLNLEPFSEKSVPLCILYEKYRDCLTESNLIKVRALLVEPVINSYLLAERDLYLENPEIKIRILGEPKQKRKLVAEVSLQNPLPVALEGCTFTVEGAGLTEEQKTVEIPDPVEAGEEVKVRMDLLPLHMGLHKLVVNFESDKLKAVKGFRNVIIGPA

T2: TG7 (human, UniProt Q96PF1)
T2 construct: recombinant, Zedira; also called recombinant human TG7
T2 sequence (enzyme, looked up): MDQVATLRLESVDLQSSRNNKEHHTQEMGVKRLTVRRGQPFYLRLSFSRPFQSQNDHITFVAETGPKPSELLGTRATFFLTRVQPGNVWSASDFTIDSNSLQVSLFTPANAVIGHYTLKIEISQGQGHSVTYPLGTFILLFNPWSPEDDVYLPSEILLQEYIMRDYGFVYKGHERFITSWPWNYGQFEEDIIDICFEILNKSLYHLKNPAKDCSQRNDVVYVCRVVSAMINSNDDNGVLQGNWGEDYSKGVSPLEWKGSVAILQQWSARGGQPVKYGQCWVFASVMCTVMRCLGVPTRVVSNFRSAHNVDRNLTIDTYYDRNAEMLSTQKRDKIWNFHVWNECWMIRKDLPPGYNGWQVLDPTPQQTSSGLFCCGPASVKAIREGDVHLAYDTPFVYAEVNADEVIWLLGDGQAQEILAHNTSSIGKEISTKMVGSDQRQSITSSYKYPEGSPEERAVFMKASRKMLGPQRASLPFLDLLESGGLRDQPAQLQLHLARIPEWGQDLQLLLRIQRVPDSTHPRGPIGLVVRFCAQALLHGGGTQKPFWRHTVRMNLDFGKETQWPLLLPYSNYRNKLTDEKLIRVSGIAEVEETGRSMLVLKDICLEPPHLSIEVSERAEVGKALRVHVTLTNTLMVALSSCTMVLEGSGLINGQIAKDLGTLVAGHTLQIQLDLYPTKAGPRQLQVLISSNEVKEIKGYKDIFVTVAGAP

T3: TG1 (human, UniProt P22735)
T3 construct: recombinant, Zedira; also called recombinant human TG1; Keratinocyte Transglutaminase
T3 sequence (enzyme, looked up): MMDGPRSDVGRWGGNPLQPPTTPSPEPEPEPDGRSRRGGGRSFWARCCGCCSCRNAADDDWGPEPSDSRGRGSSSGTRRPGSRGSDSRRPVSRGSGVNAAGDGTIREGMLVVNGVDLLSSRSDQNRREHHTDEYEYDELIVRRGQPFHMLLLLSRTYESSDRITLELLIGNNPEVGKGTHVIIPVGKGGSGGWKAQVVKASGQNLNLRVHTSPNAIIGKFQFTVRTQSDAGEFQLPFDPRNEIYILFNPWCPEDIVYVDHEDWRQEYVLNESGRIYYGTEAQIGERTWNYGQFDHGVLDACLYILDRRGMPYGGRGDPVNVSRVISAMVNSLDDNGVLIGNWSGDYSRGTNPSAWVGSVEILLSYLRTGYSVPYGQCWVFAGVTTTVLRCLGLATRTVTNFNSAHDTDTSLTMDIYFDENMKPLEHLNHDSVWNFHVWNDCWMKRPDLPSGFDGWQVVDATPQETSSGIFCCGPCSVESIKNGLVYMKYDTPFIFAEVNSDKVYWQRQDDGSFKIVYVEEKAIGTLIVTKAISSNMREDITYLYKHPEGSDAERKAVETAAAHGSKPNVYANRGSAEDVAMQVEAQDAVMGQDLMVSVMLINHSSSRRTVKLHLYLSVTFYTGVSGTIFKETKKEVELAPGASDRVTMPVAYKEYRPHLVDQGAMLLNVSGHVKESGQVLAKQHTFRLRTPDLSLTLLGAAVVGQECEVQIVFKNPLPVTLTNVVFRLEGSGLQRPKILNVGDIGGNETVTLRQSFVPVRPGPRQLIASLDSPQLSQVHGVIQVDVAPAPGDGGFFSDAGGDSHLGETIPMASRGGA


How the values were obtained:
[1] = target: T1, human transglutaminase type 2 (TG2); assay: cell-based or functional assay
TG7 = target: T2, TG7; assay: ELISA, purified IgG at 0.1 ug/ml, plates coated with 100 ng of each TG [panel B]
Method: (§1) Conditioned medium or purified IgG were tested for reactivity to transglutaminase family members. The ability of each to bind to each transglutaminase (TG1, TG2, TG3, TG5, TG7 and Factor XIIIa; all Zedira) was determined using a plate binding assay. Microtiter plates (Costar, Cambridge, UK) were coated with recombinant TG (Zedira, Darmstadt, Germany) in 50 μl of 0.1 M bicarbonate/carbonate buffer (pH 9.6) overnight at 4° C. Plates were blocked for 2 h at 37° C. with 200 μl PBS containing 3% w/v BSA. Plates were washed three times with PBS containing 0.05% Tween 20 (washing buffer) and 100 μl of diluted conditioned medium (dilution 1:5 to 1:20) or purified anti-TG2 catalytic core mAbs was added. Plates were incubated for a further 1 h at room temperature. The washing step was repeated and anti-mouse gamma chain-horseradish peroxidase (1:5000) in PBS containing 0.05% Tween 20 (v:v) and 1% BSA (w:v) (Sigma, Poole UK) was added for 1 h. […] The reaction was stopped by adding 25 μl of 0.1 M H_2SO_4 and the absorbance at 450 nm was determined.

TG1 = target: T3, TG1; assay: ELISA, hybridoma conditioned medium, plates coated with recombinant TG (100 ng/well) [panel A]
Method: as §1

Row | IC50 of TG2 activity, 3H putrescine incorporation [1] | binding result (TG7) | binding result (TG1) | Binder
1 | 6.7e-05 mg/ml IgG per ng TG2 | no binding (tested: 0.1 ug/ml) | no binding | DH2 murine monoclonal antibody (antibody, V domains shown, Mouse hybridoma IgG; heavy chain amplified with primer MHCG2B, kappa light chain; also called mDH001) VH: not shown VL: QIVLTQSPAIMSASPGEKVTMTCSASSSVSYMYWYQQKPGSSPRLLIYDTSNLASGVPVRFSGSGSGTSYSLTISRMEAEDAATFYCQQWSSSPLTFGAGTKLELK
2 | 5.24e-05 mg/ml IgG per ng TG2 | no binding (tested: 0.1 ug/ml) | no binding | DD9 murine monoclonal antibody (antibody, V domains shown, Mouse hybridoma IgG; heavy chain amplified with primer MHCG2A, kappa light chain; also called mDD9001) VH: not shown VL: QIVLTQSPAIMSASPGEKVTMTCSASSSVDYMYWYQQKPGSSPRLLIYDTSNLASGVPVRFSGSGSGTSYSLTISRMGAEDAATYYCQQWNSSPLTFGAGTKLELK
3 | 4.87e-05 mg/ml IgG per ng TG2 | no binding (tested: 0.1 ug/ml) | no binding | AG9 murine monoclonal antibody (antibody, V domains shown, Mouse hybridoma IgG; heavy chain amplified with primer MHCG1, kappa light chain) VH: EVQLQQSGPELVKPGASVKMSCRASGYTFTTYVIHWVKQKPGQGLEWIGYINPYNDGARYNEKFKGKATLTSDKSSTTAYMELSSLTSEDSAVYYCARLSSDYWGQGTTLTVSS VL: DVLMTQNPLSLPVSLGDQASISCRSSRSIEHSNGNTYLEWYLQKPGQSPKFLIYKVSNRFSGVPDRFSGSGSGTDFTLRISSVEAEDLGVYYCFQGSHVPFTFGGGTKLEIK
4 | 7.8e-05 mg/ml IgG per ng TG2 | no binding (tested: 0.1 ug/ml) | no binding | AH3 murine monoclonal antibody (antibody, V domains shown, Mouse hybridoma IgG; heavy chain amplified with primer MHCG2B, kappa light chain) VH: EVQLQQSGPELVKPGASVKMSCRASGYTFTTYVIHWVKQKPGQGLEWIGYINPYNDGARYNEKFKGKATLTSDKSSTTAYMELSSLTSEDSAVYYCARLSSDYWGQGTTLTVSS VL: DVLMTQNPLSLPVSLGDQASISCRSSRSIEHSNGNTYLEWYLQKPGQSPKFLIYKVSNRFSGVPDRFSGSGSGTDFTLRISSVEAEDLGVYYCFQGSHVPFTFGGGTKLEIK
5 | 6.9e-05 mg/ml IgG per ng TG2 | no binding (tested: 0.1 ug/ml) | no binding | EH6 murine monoclonal antibody (antibody, V domains shown, Mouse hybridoma IgG; heavy chain amplified with primer MHCG2B, kappa light chain) VH: EVQLQQSGPELVKPGASVKMSCKASGYTFTSYVMHWVKQKPGQGLEWIGFINPYNDGTKYNEKFKGKATLTSDKASTTAYMELSSLTSEDSAVYYCARFSSGYWGQGTTLTVSS VL: DVLMTQTPLSLPVSLGDQASISCRSSQSIVHSNGNTYLEWYLQKPGQSPKLLIYKVSNRFSGVPDRFSGSGSGTDFTLKISRVGAEDLGVYYCLQVSHVPFTFGSGTKLEIK
6 | – | no binding (tested: 0.1 ug/ml) | no binding | JE12 murine monoclonal antibody (antibody, V domains shown, Mouse hybridoma IgG; heavy chain amplified with primer MHCG1, kappa light chain) VH: EVQLQQSGPELVKPGASVKMSCKASGYRFTSYVMHWVKQKSGQGLEWIGYINPYNDGAKYNEKFKGKATLTSDKSSSTAYMELSSLTSEDSAVYYCARLSSDYWGQGTTLTVSS VL: DVLMTQNPLSLPVSLGDQASISCRSSQSIEHINGNTYLEWYLQKPGQSPKFLIYKVSNRFSGVPDRFSGSGSGTDFTLRISRVEAEDLGIYYCFQGSHVPFTFGGGTKLEIK
7 | 1.09e-05 mg/ml IgG per ng TG2 | no binding (tested: 0.1 ug/ml) | no binding | AB1 murine monoclonal antibody (antibody, V domains shown, Mouse hybridoma IgG; heavy chain amplified with constant region primer MHCG1, kappa light chain; also called mAB003) VH: EVQLVESGGGLVKPGGSLKLSCAASGFTLSSSAMSWVRQTPDRRLEWVATISVGGGKTYYPDSVKGRFTISRDNAKNTLYLQMNSLRSEDTAMYYCAKLISLYWGQGTTLTVSS VL: DIKMTQSPSSMYASLGERVTITCKASQDINSYLTWFQQKPGKSPKTLIYRTNRLFDGVPSRFSGSGSGQDFFLTISSLEYEDMGIYYCLQYDDFPYTFGGGTKLEIK
8 | 1.23e-05 mg/ml IgG per ng TG2 | no binding (tested: 0.1 ug/ml) | no binding | DC1 murine monoclonal antibody (antibody, V domains shown, Mouse hybridoma IgG; heavy chain amplified with primer MHCG1, kappa light chain; also called mDC001) VH: EVQLVESGGGLVKPGGSLKLSCAASGFTLSTHAMSWVRQTPEKRLEWVATISSGGRSTYYPDSVKGRFTISRDNVKNTLYLQLSSLRSEDTAVYFCARLISTYWGQGTTLTVSS VL: DITMTQSPSSIYASLGERVTITCKASQDINSYLTWFQQKPGKSPKILIYLVNRLVDGVPSRFSGSGSGQDYALTISSLEYEDMGIYYCLQYDDFPYTFGGGTKLEIK
9 | 1.59e-05 mg/ml IgG per ng TG2 | – | no binding | BB7 murine monoclonal antibody (antibody, V domains shown, Mouse hybridoma IgG; heavy chain amplified with primer MHCG1, kappa light chain; also called mBB001) VH: AVQLVESGGGLVKPGGSLKLSCAASGIIFSSSAMSWVRQTPEKRLEWVATISSGGRSTYYPDSVKGRFTVSRDSAKNTLYLQMDSLRSEDTAIYYCAKLISPYWGQGTTLTVSS VL: AIKMTQSPSSMYASLGERVIITCKASQDINSYLTWFQQKPGKSPKTLIYLTNRLMDGVPSRFSGSGSGQEFLLTISGLEHEDMGIYYCLQYVDFPYTFGGGTKLEIK
